US12539272B2, “Microemulsion-based vaccine delivery system, preparation method therefor and use thereof” (Sichuan University, priority 2020, dated 2026)

B1: chicken ovalbumin (protein, UniProt P01012 2-386, looked up)
Ovalbumin: GSIGAASMEFCFDVFKELKVHHANENIFYCPIAIMSALAMVYLGAKDSTRTQINKVVRFDKLPGFGDSIEAQCGTSVNVHSSLRDILNQITKPNDVYSFSLASRLYAEERYPILPEYLQCVKELYRGGLEPINFQTAADQARELINSWVESQTNGIIRNVLQPSSVDSQTAMVLVNAIVFKGLWEKAFKDEDTQAMPFRVTEQESKPVQMMYQIGLFRVASMASEKMKILELPFASGTMSMLVLLPDEVSGLEQLESIINFEKLTEWTSSNVMEERKIKVYLPRMKMEEKYNLTSVLMAMGITDVFSSSANLSGISSAESLKISQAVHAAHAEINEAGREVVGSAEAGVDAASVSEEFRADHPFLFCIKHIATNAVLFFGRCVSP
modifications: FITC label in uptake test
notes: free model antigen chicken ovalbumin (OVA); FITC labeled in the uptake test

Tests used:
DC2.4 cells = assay: Uptake of the microemulsion vaccine system by the DC2.4 cells (flow cytometer); assay type: cell-based; conditions: 1.5 hours at 37° C.
Experimental: Uptake of the aluminum hydroxide microemulsion vaccine system by the DC2.4 cells: 1×10^6 DC2.4 cells are implanted in each well of a 12-well plate, put into an incubator for 4-6 hours, 5 μg of FITC labeled OVA or the aluminum hydroxide microemulsion entrapping the same amount of the FITC labeled OVA and prepared according to embodiment 6 are added into each well after cell anchorage. Supernatants are discarded after uptake for 1.5 hours at 37° C., cell surfaces are washed with PBS two times slightly, and then directly blown with the PBS, and the cells are centrifugally washed twice at 2000 rpm for 3 min, finally re-suspended by using 400 μl of PBS, and tested by a flow cytometer. […] In the figure, the Free OVA represents free FITC labeled OVA, and NE-OVA represents the aluminum hydroxide microemulsion entrapping the FITC labeled OVA.
Uptake of the ferric hydroxide microemulsion vaccine system by the DC2.4 cells: 1×10^6 DC2.4 cells are implanted in each well of a 12-well plate, and put into an incubator for 4-6 hours, and 2 μg of FITC labeled melanoma antigen peptide GP100 (ITDQVPFSV) or the ferric hydroxide microemulsion entrapping the same amount of the FITC labeled melanoma antigen peptide GP100 (ITDQVPFSV) prepared according to embodiment 9 is added into each well after cell anchorage. […]

mice = assay: Cytotoxic T lymphocyte (CTL) test by CFSE staining method in immunized mice; assay type: in vivo; conditions: 25 μl into paws of mice on Day 0, 7, 14; 5 μg OVA, 0.5 μg CpG; CTL on Day 21
Experimental: Cytotoxic T lymphocyte (CTL) test and immune antibody testing of the aluminum hydroxide microemulsion vaccine system: 25 μl of the aluminum hydroxide microemulsion entrapping OVA and prepared in embodiment 6, the aluminum hydroxide microemulsion entrapping OVA and CpG and prepared in embodiment 7, and free OVA or free OVA and CpG (including 5 μg of OVA and 0.5 μg of CpG) are injected into paws of immunized mice on Day 0, Day 7 and Day 14, and CTL response in the body is tested by a CFSE staining method on Day 21. […] In the figure, OVA represents free OVA, NE-OVA represents the aluminum hydroxide microemulsion entrapping OVA, OVA+CpG represents free OVA and CpG, and NE-OVA-CpG represents the aluminum hydroxide microemulsion entrapping OVA and CpG.

Molecule | uptake by the DC2.4 cells (in words) (DC2.4 cells; 2 μg FITC labeled GP100 per well) | antigen-specific cellular immune response (CTL) (mice) | uptake by the DC2.4 cells (in words) (DC2.4 cells; 5 μg FITC labeled OVA per well)
melanoma antigen peptide GP100 (ITDQVPFSV) [Free-GP100, reference compound] | barely taken up |  | 
B1 |  | cannot induce the antigen-specific cellular immune response | barely taken up
